In US20240366722A1 (ACCELERON PHARMA, published 2024):

How the values were obtained:
Assay in all cases: Biacore, steady-state affinity fit
[1] = molecular target: T1, activin A (UniProt P08476 311-426)
T1 construct: also called ActA
T1 sequence (looked up): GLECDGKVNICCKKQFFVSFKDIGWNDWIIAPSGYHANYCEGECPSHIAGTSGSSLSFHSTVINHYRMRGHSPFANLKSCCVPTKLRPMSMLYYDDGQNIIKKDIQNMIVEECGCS
Procedure: (§1) The affinity of ActRIIB variants and other ActRIIB-hFc proteins for several ligands was evaluated in vitro with a Biacore™ instrument. Kd values were obtained by steady-state affinity fit due to the very rapid association and dissociation of the complex, which prevented accurate determination of kₒₙ and koff.

[2] = molecular target: T2, activin B (UniProt P09529 293-407)
T2 sequence (looked up): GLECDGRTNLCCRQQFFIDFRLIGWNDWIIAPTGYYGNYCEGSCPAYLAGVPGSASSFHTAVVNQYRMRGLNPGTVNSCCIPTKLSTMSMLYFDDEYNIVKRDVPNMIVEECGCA
Procedure: as §1

[3] = molecular target: T3, GDF11 (UniProt O95390 299-407)
T3 sequence (looked up): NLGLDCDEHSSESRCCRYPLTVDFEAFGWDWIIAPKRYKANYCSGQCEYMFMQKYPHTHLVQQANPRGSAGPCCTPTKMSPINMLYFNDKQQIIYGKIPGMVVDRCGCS
Procedure: as §1

Kd [1]: 22.9 nM
Kd [2]: 0.621 nM
Kd [3]: 0.074 nM
B1: ActRIIB(L79D 25-131)-hFc (Fc fusion)
chain: ETRECIYYNANWELERTNQSGLERCEGEQDKRLHCYASWRNSSGTIELVKKGCWDDDFNCYDRQECVATEENPQVYFCCCEGNFCNERFTHLPEAGGPEVTYEPPPTGGGTHTCPPCPAPELLGGPSVFLFPPKPKDTLMISRTPRVTCVVVDVSHEDPEVKFNWYVDGVEVHNAKTKPREEQYNSTYRVVSVLTVLHQDWLNGKEYKCKVSNKALPAPIEKTISKAKGQPREPQVYTLPPSREEMTKNQVSLTCLVKGFYPSDIAVEWESNGQPENNYKTTPPVLDSDGSFFLYSKLTVDKSRWQQGNVFSCSVMHEALHNHYTQKSLSLSPGK
notes: Cell purified form without leader
